Measured values: publication PMC11649929

Target: 5*MYC-HSD17B13 (Mouse) (UniProt Q8VCR2)
Assay: co-immunoprecipitation (IP: MYC) and Western blotting, band intensity
Settings: HEK293T cells transfected with EGFP-Rab2A plasmids and MYC-HSD17B13; parent: 3.3

UniProt Q8VCR2, sequence (Q8VCR2 whole entry): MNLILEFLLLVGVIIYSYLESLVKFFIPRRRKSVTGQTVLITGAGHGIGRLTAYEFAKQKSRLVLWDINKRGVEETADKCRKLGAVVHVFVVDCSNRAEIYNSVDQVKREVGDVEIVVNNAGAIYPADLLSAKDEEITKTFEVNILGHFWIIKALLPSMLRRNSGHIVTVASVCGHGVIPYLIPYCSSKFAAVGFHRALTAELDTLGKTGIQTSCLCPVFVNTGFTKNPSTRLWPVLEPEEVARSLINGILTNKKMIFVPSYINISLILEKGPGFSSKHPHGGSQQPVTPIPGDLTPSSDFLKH

Rab2A, wild type, expressed from a plasmid in HEK293T cells (tag not told) (from UniProt P53994) Q32...E42-A...A
response: 0.9
